B1: 6xHis-MBP-selenos 40–65 (domain or fragment)
chain: {6xHis-MBP}-SCILLYVVFQKLSARLRALRQRQLDR
modifications: reading uncertain
B2: 6xHis-MBP-selenos 40–59 (domain or fragment)
chain: {6xHis-MBP}-SCILLYVVFQKLSARLRALR
modifications: reading uncertain
B3: 6xHis-MBP-selenos 34–65 (domain or fragment)
chain: {6xHis-MBP}-GWYIVFSCILLYVVFQKLSARLRALRQRQLDR
modifications: reading uncertain
B4: 6xHis-MBP-selenos 34–59 (domain or fragment)
chain: {6xHis-MBP}-GWYIVFSCILLYVVFQKLSARLRALR
modifications: reading uncertain

Where no end group is shown, it is not given here. MBP = not defined here

The target in this test is nsp7 with a C-terminal strep-tag II (nsp7-strep), SARS-CoV-2 nonstructural protein 7 (SARS-CoV-2, UniProt P0DTD1 3860-3942). The experiment in a line: pull-down.
In the case of B1, the binding result is “binds”. As for B2, the binding result is reported as “binds”. As to B3, the binding result is “binds”. On to B4, for which the binding result is reported as “binds”.
